Changes are numbered by the printed parent chain.

We go through eight molecules from patent US20230137139A1, “BIOSYNTHESIS OF CANNABINOIDS AND C[…]” (priority 2020, published 2023).

The labels stand for the following.
B1: t865690 (protein)
chain: MGNTTSIAGRDCLISALGGNSALAVFPNELLWTADVHEYNLNLPVTPAAITYPETAAQIAGVVKCASDYDYKVQARSGGHSFGNYGLGGADGAVVVDMKHFTQFSMDDETYEAVIGPGTTLADVDTELYNNGKRAMAHGVCPTIKTGGHFTIGGLGPTARQWGLALDHVEEVEVVLANSSIVRASNTQNQDVFFAVKGAAANFGIVTEFKVRTEPAPGLAVQYSYTFNLGSTAEKAQFVKDWQSFISAKNLTRQFYNNMVIFDGDIILEGLFFGSKEQYDALGLEDHFAPKNPGNILVLTDWLGMVGHALEDTILKLVGNTPTWFYAKSLGFRQDTLIPSAGIDEFFEYIANHTAGTPAWFVTLSLEGGAINDVAEDATAYAHRDVLFWVQLFMVNPVGPISDTTYEFTDGLYDVLARAVPESVGHAYLGCPDPRMEDAQQKYWRTNLPRLQELKEELDPKNTFHHPQGVMPA
B2: t878470 (protein)
chain: B1 chain with A57Q, G61A, A122N, T126I
modifications: expressed in S. cerevisiae strain
B3: t865728 (protein)
chain: B1 chain with A122N, T126I, H287R, A341S
B4: t865749 (protein)
chain: B1 chain with Y71I, A122N, T126I
modifications: expressed in S. cerevisiae strain
B5: t865805 (protein)
chain: B1 chain with T55S, A122N
modifications: expressed in S. cerevisiae strain
B6: t865729 (protein)
chain: B1 chain with A57E, A122N, T126I, N131S
B7: t865711 (protein)
chain: B1 chain with A122G, T126I, V398F
B8: t865714 (protein)
chain: B1 chain with A122N, T126I, M394T

The test system of one assay is CBCA, THCA, and CBDA production. As to the kind of experiment: In vivo TS activity assay, Example 2 protein engineering of A. niger CBCAS, cultures fed olivetolic acid. It is filed as cell-based, S. cerevisiae. As to conditions: secondary screen. How it is done: (§1) An assay to detect TS activity was conducted as follows: each thawed glycerol stock of candidate CBCAS transformants was stamped into a well of YEP+4% dextrose media. Samples were incubated at 30° C. in a shaking incubator for 2 days. A portion of each of the resulting cultures was stamped into a well of YEP+4% galactose+1 mM olivetolic acid (FIG. 1 Structure 6a). Samples were incubated at 20° C. and shaken in a shaking incubator for 4 days. Every 24 hours during those 4 days, 2% galactose and 1 mM olivetolic acid were spiked into the cultures. Sodium citrate buffer adjusted to pH 5.5 was added to each well at a final concentration of 100 mM. Samples were incubated at 20° C. and shaken in a shaking incubator for 2 days. A portion of each of the resulting production cultures was stamped into a well of phosphate buffered saline (PBS). Optical measurements were taken on a plate reader, with absorbance measured at 600 nm and fluorescence at 528 nm with 485 nm excitation. Samples were incubated at 30° C. in a shaking incubator for 2 days. 100% methanol was stamped into the production cultures in half-height deepwell plates. Plates were heat sealed and frozen. Samples were then thawed for 30 min and spun down at 4° C. A portion of the supernatant was stamped into half-area 96 well plates. CBCA, THCA, and CBDA production in the samples was quantified via liquid chromatography-mass spectrometry (LC-MS).
(§2) To determine whether engineering of the A. niger CBCAS identified in Example 1 (corresponding to SEQ ID NO: 29 (with signal peptides); SEQ ID NO: 27 (without signal peptides and including an N-terminal methionine (UniProt accession No. A0A254UC34)); or SEQ ID NO: 25 (without signal peptides and without the N-terminal methionine)), could alter CBCAS substrate specificity, product specificity and/or amounts of products produced, point mutations were generated in A. niger CBCAS and the mutant versions of the protein were expressed in S. cerevisiae. A library containing 1047 A. niger CBCAS mutants was generated and screened. As in Example 1, each CBCAS mutant in the library, as well as the enzymes expressed by positive control strains, included an N-terminal MFalpha2 signal peptide (SEQ ID NO: 16) (with a methionine residue added at the N-terminus of the MFalpha2 signal peptide) and a C-terminal HDEL signal peptide (SEQ ID NO: 17).
Production of compounds of Formulae (9), (10), and/or (11), including compounds of Formulae (9a), (10a), and/or (11a) by strains expressing the mutated versions of A. niger CBCAS was quantified and compared to the production of the same compounds by a strain expressing wild-type A. niger CBCAS, a strain expressing a C. sativa THCAS, and a strain expressing a C. sativa CBDAS. The strains were screened using the same assay described in Example 1. Production of CBCA, THCA, and/or CBDA in the samples was quantified via LC-MS.
(§3) Of the original 1047 library members, 55 strains were elevated to a secondary screen to verify CBCA production. The experimental protocol for the secondary screen was identical to the primary screen, except that additional biological replicates were included per strain, and replicate production cultures for each strain were separately fed 1 mM boluses of olivetolic acid or 1 mM boluses of divaric acid. All strains were screened in quadruplicate.
With B1, the “average CBCA titer compared with the A. niger positive control” value was “higher”.

Turning to B2, the “average CBCA titer compared with the A. niger positive control” value is “higher”.

Consider B3, for which the “average CBCA titer compared with the A. niger positive control” value is “higher”.

Take B4: the “average CBCA titer compared with the A. niger positive control” value is on record as “higher”.

On to B5, for which the “average CBCA titer compared with the A. niger positive control” value is listed as “higher”.

In the case of B6, the “average CBCA titer compared with the A. niger positive control” value is “higher”.

On to B7, for which the “average CBCA titer compared with the A. niger positive control” value was “higher”.

For the molecule B8, the “average CBCA titer compared with the A. niger positive control” value is reported as “higher”.

Staying with this assay, now noted: secondary screen, olivetolic acid (Table 8).
As for B1, the “Mean CBCA” value was 38065.26 µg/L, the “Mean CBDA” value worked out at 8288.48 µg/L and the “Mean THCA” value came out at 2186.36 µg/L.

Consider B2, for which the “Mean CBCA” value turned out to be 64502.70 µg/L, the “Mean CBDA” value was 10538.52 µg/L and the “Mean THCA” value came out at 2739.24 µg/L.

For the molecule B3, the “Mean CBCA” value came to 36875.12 µg/L, the “Mean CBDA” value is 8996.37 µg/L and the “Mean THCA” value stood at 2692.19 µg/L.

Regarding B4, the “Mean CBCA” value was found to be 37290.06 µg/L, the “Mean CBDA” value stood at 6071.00 µg/L and the “Mean THCA” value is 2140.74 µg/L.

Regarding B5, the “Mean CBCA” value is 34567.68 µg/L, the “Mean CBDA” value worked out at 8917.97 µg/L and the “Mean THCA” value turned out to be 2285.23 µg/L.

B6: the “Mean CBCA” value amounted to 32213.25 µg/L, the “Mean CBDA” value worked out at 8392.06 µg/L and the “Mean THCA” value is 1856.57 µg/L.

As to B7, the “Mean CBCA” value came to 33994.02 µg/L, the “Mean CBDA” value turned out to be 9666.71 µg/L and the “Mean THCA” value turned out to be 2096.22 µg/L.

With B8, the “Mean CBCA” value came out at 32311.22 µg/L, the “Mean CBDA” value was determined as 6827.61 µg/L and the “Mean THCA” value came out at 2172.74 µg/L.

Still in this assay, the particulars now being: share of terminal cannabinoid product profile.
B1: the “% CBCA” value was 78.42%, the “% CBDA” value is 17.08% and the “% THCA” value was found to be 4.50%.

As for B2, the “% CBCA” value is 82.93%, the “% CBDA” value stood at 13.55% and the “% THCA” value turned out to be 3.52%.

With B3, the “% CBCA” value was 75.93%, the “% CBDA” value was found to be 18.52% and the “% THCA” value is 5.54%.

Take B4: the “% CBCA” value was determined as 81.95%, the “% CBDA” value is 13.34% and the “% THCA” value came to 4.70%.

As for B5, the “% CBCA” value came out at 75.52%, the “% CBDA” value is listed as 19.48% and the “% THCA” value was found to be 4.99%.

Take B6: the “% CBCA” value is 75.86%, the “% CBDA” value worked out at 19.76% and the “% THCA” value came out at 4.37%.

With B7, the “% CBCA” value came to 74.29%, the “% CBDA” value is 21.13% and the “% THCA” value is recorded as 4.58%.

For the molecule B8, the “% CBCA” value is on record as 78.21%, the “% CBDA” value was 16.53% and the “% THCA” value is 5.26%.

The test system of another assay is CBCVA, THCVA, and CBDVA production. As to the kind of experiment: In vivo TS activity assay, Example 2 protein engineering of A. niger CBCAS, cultures fed divaric acid. It is filed as cell-based, S. cerevisiae. As to conditions: S. cerevisiae strains expressing A. niger CBCAS mutants, secondary screen, fed divaric acid. How it is done: as §1, §2, §3
As for B1, the “Mean CBCVA” value stood at 2557.72 µg/L, the “Mean CBDVA” value was 0.00 µg/L and the “Mean THCVA” value was 1441.19 µg/L.

Take B2: the “Mean CBCVA” value worked out at 3226.77 µg/L, the “Mean CBDVA” value stood at 0.00 µg/L and the “Mean THCVA” value is 1646.54 µg/L.

For the molecule B3, the “Mean CBCVA” value was 3907.72 µg/L, the “Mean CBDVA” value turned out to be 0.00 µg/L and the “Mean THCVA” value was determined as 1759.32 µg/L.

In the case of B4, the “Mean CBCVA” value was determined as 2230.06 µg/L, the “Mean CBDVA” value amounted to 0.00 µg/L and the “Mean THCVA” value is 997.07 µg/L.

Turning to B5, the “Mean CBCVA” value is 3077.84 µg/L, the “Mean CBDVA” value is 0.00 µg/L and the “Mean THCVA” value was 1538.55 µg/L.

Turning to B6, the “Mean CBCVA” value was found to be 3685.70 µg/L, the “Mean CBDVA” value was found to be 0.00 µg/L and the “Mean THCVA” value was determined as 1839.38 µg/L.

Regarding B7, the “Mean CBCVA” value stood at 2442.93 µg/L, the “Mean CBDVA” value was determined as 0.00 µg/L and the “Mean THCVA” value stood at 1315.45 µg/L.

Consider B8, for which the “Mean CBCVA” value is 1775.08 µg/L, the “Mean CBDVA” value was found to be 0.00 µg/L and the “Mean THCVA” value came to 1101.76 µg/L.

The assay is the same for the next values; noted with them: secondary screen.
With B3, the “average CBCVA titer compared with the A. niger positive control” value is given as “higher”.

Regarding B6, the “average CBCVA titer compared with the A. niger positive control” value is listed as “higher”.

The assay is the same for the next values; noted with them: share of terminal cannabinoid product profile, fed divaric acid.
Take B1: the “% CBCVA” value stood at 63.96%, the “% CBDVA” value was 0.00% and the “% THCVA” value was 36.04%.

As to B2, the “% CBCVA” value turned out to be 66.21%, the “% CBDVA” value amounted to 0.00% and the “% THCVA” value was 33.79%.

Turning to B3, the “% CBCVA” value stood at 68.96%, the “% CBDVA” value was determined as 0.00% and the “% THCVA” value is listed as 31.04%.

With B4, the “% CBCVA” value is 69.10%, the “% CBDVA” value is 0.00% and the “% THCVA” value is 30.90%.

As to B5, the “% CBCVA” value was found to be 66.67%, the “% CBDVA” value is 0.00% and the “% THCVA” value worked out at 33.33%.

Turning to B6, the “% CBCVA” value came out at 66.71%, the “% CBDVA” value was found to be 0.00% and the “% THCVA” value was 33.29%.

For the molecule B7, the “% CBCVA” value was 65.00%, the “% CBDVA” value worked out at 0.00% and the “% THCVA” value amounted to 35.00%.

For B8, the “% CBCVA” value was found to be 61.70%, the “% CBDVA” value stood at 0.00% and the “% THCVA” value is listed as 38.30%.
